Usually Emax stands for the maximal effect, on the per cent scale that the assay sets. As a reminder, the EC50 is the midpoint of the concentration-response curve. For orientation: Ki means a dissociation constant, usually derived from enzyme kinetics or from competition with a known ligand.

The results in this text go back to patent US20230265151A1, “GIP/GLP1 CO-AGONIST COMPOUNDS” (priority 2020, published 2023).

One test addresses T1, hGIPR (Homo sapiens, UniProt P48546).
T1 construct: expressed in transfected cells
T1 sequence (P48546 22-466): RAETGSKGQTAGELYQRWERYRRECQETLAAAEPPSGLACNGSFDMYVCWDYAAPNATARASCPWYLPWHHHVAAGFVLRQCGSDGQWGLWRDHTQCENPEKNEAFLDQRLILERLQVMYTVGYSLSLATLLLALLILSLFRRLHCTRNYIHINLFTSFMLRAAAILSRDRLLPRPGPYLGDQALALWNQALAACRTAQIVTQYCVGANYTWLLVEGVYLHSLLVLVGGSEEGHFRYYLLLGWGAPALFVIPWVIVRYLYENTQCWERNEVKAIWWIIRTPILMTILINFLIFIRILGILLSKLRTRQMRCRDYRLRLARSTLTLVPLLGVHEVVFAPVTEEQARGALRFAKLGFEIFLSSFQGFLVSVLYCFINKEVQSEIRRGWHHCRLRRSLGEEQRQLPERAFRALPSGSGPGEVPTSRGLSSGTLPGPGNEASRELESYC
Briefly: Functional cAMP formation (HTRF) in HEK-293 clonal cells expressing hGIPR, 0.1% bovine casein, without or with 1.0% human serum albumin. Particulars: 37° C.; for Emax: HEK293, cAMP, 0.1% bovine casein and 1.0% human serum albumin, percent of maximal response to GIP(1-42)NH2, read-out: hGIPR Emax, % ± SEM; for EC50: cAMP, 0.1% bovine casein (no human serum albumin), geometric mean, read-out: hGIPR EC50, nM (SEM, n). Type of test: cell-based. In short, it runs like this:
(§1)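 Cells were stimulated with peptide for 30 min at 37° C, then intracellular cAMP was measured by competitive HTRF (665/620 nm ratio) and converted to nM using a cAMP standard curve. Relative EC50 and Emax came from four-parameter logistic fits of percent maximal response against peptide concentration.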

A further test addresses hGLP-1R (Homo sapiens, UniProt P43220). The experiment in a line: Functional cAMP formation (HTRF) in HEK-293 clonal cells expressing hGLP-1R, 0.1% bovine casein, without or with 1.0% human serum albumin. More on the design: expressed in transfected cells. The note with it: 37° C.; for EC50: cAMP, 0.1% bovine casein (no human serum albumin), geometric mean, read-out: hGLP-1R EC50, nM (SEM, n). Type of test: cell-based. An outline of the steps:
as §1
On the technique in general: cAMP levels reflect the balance of adenylyl cyclase and phosphodiesterase activity.

Test [1] has as its target T2, human GLP-1 receptor (hGLP-1R) (Homo sapiens, UniProt P43220).
T2 construct: expressed in transfected cells; crude membranes
The experiment in a line: [125I]-GLP-1 binding, SPA with membranes of HEK293 cells expressing hGLP-1R. The note with it: human GLP-1R; geometric mean (SEM, n); read-out: Binding Affinity Ki, nM (SEM, n) hGLP-1R.

The target in the next test is T3, hGCGR (Homo sapiens, UniProt P47871).
T3 construct: expressed in transfected cells
T3 sequence (P47871 26-477): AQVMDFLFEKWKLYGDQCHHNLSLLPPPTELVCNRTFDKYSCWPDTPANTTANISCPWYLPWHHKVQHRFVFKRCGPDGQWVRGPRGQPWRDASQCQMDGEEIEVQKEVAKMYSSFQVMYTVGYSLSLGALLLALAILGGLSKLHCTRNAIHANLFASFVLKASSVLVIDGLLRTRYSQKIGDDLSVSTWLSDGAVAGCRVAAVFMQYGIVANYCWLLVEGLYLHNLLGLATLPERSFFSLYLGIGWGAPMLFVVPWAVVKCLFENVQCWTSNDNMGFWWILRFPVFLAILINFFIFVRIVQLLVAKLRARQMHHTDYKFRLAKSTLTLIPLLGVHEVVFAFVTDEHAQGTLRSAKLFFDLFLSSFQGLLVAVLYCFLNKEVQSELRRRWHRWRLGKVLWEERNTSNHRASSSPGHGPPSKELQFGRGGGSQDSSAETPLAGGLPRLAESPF
Briefly: Functional cAMP formation (HTRF) in HEK-293 clonal cells expressing hGCGR, 0.1% bovine casein, without or with 1.0% human serum albumin. The note with it: cAMP, 37° C., read-out: hGCGR EC50, nM (SEM, n). The format is cell-based. An outline of the steps:
as §1

Test [2] addresses T4, human Gcg receptor (hGcgR) (Homo sapiens, UniProt P47871).
T4 construct: expressed in transfected cells; crude membranes
Briefly: [125I]-Glucagon binding, SPA with membranes of HEK293 cells expressing hGcgR. Particulars: human GcgR; geometric mean (SEM, n); read-out: Binding Affinity Ki, nM (SEM, n) hGCGR.

The target in test [3] is T5, human GIP receptor (hGIPR) (Homo sapiens, UniProt P48546).
T5 construct: expressed in transfected cells; crude membranes
T5 sequence (P48546 22-466): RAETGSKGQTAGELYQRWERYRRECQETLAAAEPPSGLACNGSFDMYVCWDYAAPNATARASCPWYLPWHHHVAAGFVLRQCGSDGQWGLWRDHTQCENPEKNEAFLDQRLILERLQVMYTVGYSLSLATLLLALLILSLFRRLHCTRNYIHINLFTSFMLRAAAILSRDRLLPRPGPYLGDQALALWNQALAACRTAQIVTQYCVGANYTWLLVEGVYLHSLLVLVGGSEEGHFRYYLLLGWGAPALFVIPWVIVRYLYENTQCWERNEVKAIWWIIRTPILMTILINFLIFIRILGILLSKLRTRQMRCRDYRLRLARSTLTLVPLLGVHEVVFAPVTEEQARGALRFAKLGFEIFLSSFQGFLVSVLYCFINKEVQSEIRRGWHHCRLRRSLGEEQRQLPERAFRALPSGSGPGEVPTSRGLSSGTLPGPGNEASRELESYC
The experiment in a line: [125I]-GIP binding, SPA with membranes of CHO cells expressing hGIPR. Particulars: human GIPR; geometric mean (SEM, n); read-out: Binding Affinity Ki, nM (SEM, n) hGIPR.

Test [4] concerns the target T6, human glucose-dependent insulinotropic polypeptide (GIP) receptor (human) (UniProt P48546).
T6 sequence (looked up): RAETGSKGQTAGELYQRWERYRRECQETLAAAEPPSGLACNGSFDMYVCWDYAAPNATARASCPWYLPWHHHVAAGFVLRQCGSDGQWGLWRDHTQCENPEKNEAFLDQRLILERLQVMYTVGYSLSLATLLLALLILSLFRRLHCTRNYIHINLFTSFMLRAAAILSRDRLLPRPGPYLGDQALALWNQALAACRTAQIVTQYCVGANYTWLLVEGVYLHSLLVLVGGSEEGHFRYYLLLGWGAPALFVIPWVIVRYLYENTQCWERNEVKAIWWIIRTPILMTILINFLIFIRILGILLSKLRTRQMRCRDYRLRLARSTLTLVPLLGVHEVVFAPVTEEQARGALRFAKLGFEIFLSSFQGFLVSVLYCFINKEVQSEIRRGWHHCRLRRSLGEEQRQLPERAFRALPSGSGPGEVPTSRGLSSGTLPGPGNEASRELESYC
Briefly: cell-based or functional assay.

In test [5] the target is human glucagon receptor (human) (UniProt P47871). Briefly: cell-based or functional assay.
The target in test [6] is human glucagon-like peptide-1 (GLP-1) receptor (human) (UniProt P43220). Briefly: cell-based or functional assay.
Another test concerns the target human GLP-1 receptor (human, UniProt P43220 24-463). The experiment in a line: cell-based or functional assay.
A further test concerns the target human glucagon receptor (human, UniProt P47871 26-477). Briefly: cell-based or functional assay.
The target in a further test is T7, human GIP receptor (human, UniProt P48546 22-466).
T7 sequence (looked up): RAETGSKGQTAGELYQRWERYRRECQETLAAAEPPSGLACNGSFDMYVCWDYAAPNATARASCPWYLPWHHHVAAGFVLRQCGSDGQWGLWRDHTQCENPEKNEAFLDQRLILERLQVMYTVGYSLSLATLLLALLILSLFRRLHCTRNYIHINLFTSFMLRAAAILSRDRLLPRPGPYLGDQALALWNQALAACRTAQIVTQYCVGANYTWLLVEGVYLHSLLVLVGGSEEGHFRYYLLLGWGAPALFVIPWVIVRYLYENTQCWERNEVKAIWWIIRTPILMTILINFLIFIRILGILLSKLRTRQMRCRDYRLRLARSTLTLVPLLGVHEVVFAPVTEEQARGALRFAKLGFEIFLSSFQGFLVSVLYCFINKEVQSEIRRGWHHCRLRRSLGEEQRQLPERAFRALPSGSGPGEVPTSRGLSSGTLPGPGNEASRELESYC
The experiment in a line: cell-based or functional assay.

Setting [7] is: 0.1% bovine casein (no human serum albumin), geometric mean.
Setting [8] is: 0.1% bovine casein and 1.0% human serum albumin, geometric mean (SEM, n).

Where two headings read alike, the source gives them in different places.

Chain of hGLP-1R (P43220 24-463): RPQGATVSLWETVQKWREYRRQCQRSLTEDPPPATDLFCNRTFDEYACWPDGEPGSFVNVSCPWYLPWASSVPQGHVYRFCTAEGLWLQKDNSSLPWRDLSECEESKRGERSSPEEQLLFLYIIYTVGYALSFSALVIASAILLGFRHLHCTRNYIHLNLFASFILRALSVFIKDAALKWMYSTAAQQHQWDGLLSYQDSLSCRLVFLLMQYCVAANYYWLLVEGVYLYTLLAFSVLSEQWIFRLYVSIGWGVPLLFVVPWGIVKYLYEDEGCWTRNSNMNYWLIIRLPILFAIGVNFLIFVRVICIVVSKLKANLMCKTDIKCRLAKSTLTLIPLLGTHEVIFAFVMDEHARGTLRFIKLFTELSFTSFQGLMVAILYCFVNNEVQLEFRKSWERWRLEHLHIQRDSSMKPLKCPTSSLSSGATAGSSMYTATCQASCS
T4 sequence (P47871 26-477): as the sequence (P47871 26-477) above
T2 sequence (P43220 24-463): as the sequence (P43220 24-463) above

Turning to `CCCCCCCCCCCC(=O)N[C@@H](CCC(=O)NCCOCCOCC(=O)NCCOCCOCC(=O)NCCCC[C@H](NC(=O)[C@H](CCCN)NC(=O)[C@H](CC(=O)O)NC(=O)[C@H](CC(C)C)NC(=O)[C@](C)(CC(C)C)NC(=O)[C@@H](NC(=O)C(C)(C)NC(=O)[C@H](Cc1ccncc1)NC(=O)[C@H](CC(=O)O)NC(=O)[C@H](CO)NC(=O)[C@@H](NC(=O)[C@](C)(Cc1ccccc1F)NC(=O)[C@@H](NC(=O)CNC(=O)[C@H](CCC(=O)O)NC(=O)C(C)(C)NC(=O)[C@@H](N)Cc1ccc(O)cc1)[C@@H](C)O)[C@@H](C)O)[C@@H](C)CC)C(=O)N[C@@H](C)C(=O)N[C@@H](CCC(N)=O)C(=O)NC(C)(C)C(=O)NCC(=O)N[C@@H](Cc1ccccc1)C(=O)N[C@H](C(=O)N[C@H](CCC(=O)O)C(=O)N[C@@](C)(Cc1ccc(O)cc1)C(=O)N[C@@H](CC(C)C)C(=O)N[C@H](C(=O)N[C@@H](CCCCNC(=O)COCCOCCNC(=O)COCCOCCNC(=O)CC[C@H](NC(=O)CCCCCCCCCCC)C(=O)O)C(=O)NCC(=O)NCC(=O)N1CCC[C@H]1C(=O)N[C@@H](CO)C(=O)N[C@@H](CO)C(=O)NCC(=O)N[C@@H](C)C(=O)N1CCC[C@H]1C(=O)N1CCC[C@H]1C(=O)N1CCC[C@H]1C(=O)N[C@@H](CO)C(N)=O)[C@@H](C)CC)[C@@H](C)CC)C(=O)O` [Example 494], the Emax at hGIPR turned out to be 92.6%. The EC50 on hGIPR is 0.0123 nM; on hGLP-1R, 0.15 nM; on hGCGR (setting [7]), greater than 9950 nM; at hGCGR (setting [8]), greater than 9950 nM. For the same molecule, the inhibition constant (Ki) in [1] is 0.188 nM; in test [2], 135 nM; in [3] it was 0.0197 nM.

On to `CC[C@H](C)[C@H](NC(=O)[C@H](CC(C)C)NC(=O)[C@](C)(Cc1ccc(O)cc1)NC(=O)[C@H](CCCCNC(=O)COCCOCCNC(=O)COCCOCCNC(=O)COCCOCCNC(=O)CC[C@H](NC(=O)CCCCCCCCCCCCC(=O)O)C(=O)O)NC(=O)[C@@H](NC(=O)[C@H](Cc1ccccc1)NC(=O)[C@H](CCCN)NC(=O)C(C)(C)NC(=O)[C@H](CCC(N)=O)NC(=O)[C@H](C)NC(=O)[C@H](CCC(N)=O)NC(=O)[C@H](CCCN)NC(=O)[C@H](CC(=O)O)NC(=O)[C@H](CC(C)C)NC(=O)[C@](C)(CC(C)C)NC(=O)[C@@H](NC(=O)C(C)(C)NC(=O)[C@H](Cc1ccc(O)cc1)NC(=O)[C@H](CC(=O)O)NC(=O)[C@H](CO)NC(=O)[C@@H](NC(=O)[C@](C)(Cc1ccccc1F)NC(=O)[C@@H](NC(=O)CNC(=O)[C@H](CCC(=O)O)NC(=O)C(C)(C)NC(=O)[C@@H](N)Cc1ccc(O)cc1)[C@@H](C)O)[C@@H](C)O)[C@@H](C)CC)[C@@H](C)CC)C(=O)N[C@@H](CCCCNC(=O)COCCOCCNC(=O)COCCOCCNC(=O)COCCOCCNC(=O)CC[C@H](NC(=O)CCCCCCCCCCCCC(=O)O)C(=O)O)C(=O)NCC(=O)NCC(=O)N1CCC[C@H]1C(=O)N[C@@H](CO)C(=O)N[C@@H](CO)C(=O)NCC(=O)N[C@@H](C)C(=O)N1CCC[C@H]1C(=O)N1CCC[C@H]1C(=O)N1CCC[C@H]1C(=O)N[C@@H](CO)C(N)=O` [Example 479], for which the Emax at hGIPR turned out to be 89.5%; on hGLP-1R (HEK293, cAMP, 0.1% bovine casein and 1.0% human serum albumin, percent of maximal response to GLP-1(7-36)NH2, read-out: hGLP-1R Emax, % ± SEM), 95.3%. In addition, the 50% effective concentration (EC50) was 0.00718 nM on hGIPR, 0.115 nM on hGLP-1R, greater than 9950 nM at hGCGR (setting [7]) and greater than 9950 nM on hGCGR (setting [8]). For the same molecule, the Ki in test [1] worked out at 0.246 nM; in test [2] it was 213 nM; in test [3] it was 0.0249 nM.

B1: Example 220 (peptide)
peptide: YXEGTXTSDXXIXLDXIAQXKFIXXLIKGGPSSGAPPPS
modifications: Y-Aib-EGT-αMeF(2F)-TSD-4Pal-Aib-I-αMeL-LD-Orn-IAQ-Aib-K((2-[2-(2-Amino-ethoxy)-ethoxy]-acetyl)2-(γ-Glu)-CO-(CH2)12-CO2H)FI-(D-Glu)-αMeY-LIK((2-[2-(2-Amino-ethoxy)-ethoxy]-acetyl)2-(γ-Glu)-CO-(CH2)12-CO2H)GGPSSGAPPPS-NH2
In the case of B1, the cAMP EC50 is 0.0237 nM in test [4], greater than 9950 nM in test [5] and 0.535 nM in [6]. Also, the cAMP Emax was determined as 91.6% in test [4] and 87.6% in test [6]. The “cAMP EC50 (1.0% HSA)” value in the test with human GLP-1 receptor is 150 nM; with human glucagon receptor, greater than 9950 nM; with human GIP receptor, 11.6 nM. The entries for the “cAMP Emax (1.0% HSA)” value with human GLP-1 receptor and with human GIP receptor were 110% and 83.5%, respectively.

B2: Example 231 (peptide)
peptide: YXEGTXTSDYXIXLDXKAQXEFIXXLIKGGPSSGAPPPS
modifications: Y-Aib-EGT-αMeF(2F)-TSDY-Aib-I-αMeL-LD-Orn-K((2-[2-(2-Amino-ethoxy)-ethoxy]-acetyl)2-(γ-Glu)-CO-(CH2)12-CO2H)AQ-Aib-EFI-(D-Glu)-αMeY-LIK((2-[2-(2-Amino-ethoxy)-ethoxy]-acetyl)2-(γ-Glu)-CO-(CH2)12-CO2H)GGPSSGAPPPS-NH2
With B2, the figures for the cAMP EC50 in [4], in [5] and in test [6] were 0.0184 nM, greater than 9950 nM and 1.22 nM, respectively. Moreover, the results for the cAMP Emax in [4] and in test [6] were 102% and 107%, respectively. The “cAMP EC50 (1.0% HSA)” value in the test with human GLP-1 receptor was 51.8 nM; in the test with human glucagon receptor, greater than 9950 nM; with human GIP receptor it was 2.46 nM. Moreover, in the test with human GIP receptor, the “cAMP Emax (1.0% HSA)” value was determined as 85.4%.
